These results are taken from patent US20220119534A1 (DRAGONFLY THERAPEUTICS, published 2022).

Positions count from the first letter of the chain named. Values joined by “and” are separate entries in the source; they are usually repeats but may differ in a detail not shown here. Equal entries are not always repeated.

The target in assay [1] is T1, recombinant human CLEC12A-His (human, UniProt Q5QGZ9 65-265).
T1 construct: also called hCLEC12A-His; hCLEC12A
T1 sequence: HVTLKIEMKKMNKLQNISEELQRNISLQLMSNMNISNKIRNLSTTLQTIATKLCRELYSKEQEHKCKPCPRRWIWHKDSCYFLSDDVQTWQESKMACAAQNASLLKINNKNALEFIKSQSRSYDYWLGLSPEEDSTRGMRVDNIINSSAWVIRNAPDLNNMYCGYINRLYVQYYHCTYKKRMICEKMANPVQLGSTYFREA
In words: SPR 37C, average.

The target in assay [2] is T2, human CLEC12A expressed on cells (human, UniProt Q5QGZ9 1-265).
T2 construct: Transduced isogenic cells or endogenous expression on AML cells; also called RMA-hCLEC12A; Ba/F3-hCLEC12A
T2 sequence: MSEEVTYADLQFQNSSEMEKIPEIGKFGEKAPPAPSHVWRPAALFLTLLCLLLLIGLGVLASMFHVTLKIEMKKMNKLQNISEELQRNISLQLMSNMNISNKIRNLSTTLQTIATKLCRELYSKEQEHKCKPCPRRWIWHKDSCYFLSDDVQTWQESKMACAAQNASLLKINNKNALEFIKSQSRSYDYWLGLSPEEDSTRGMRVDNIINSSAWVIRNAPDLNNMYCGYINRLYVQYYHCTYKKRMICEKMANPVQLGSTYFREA
In words: flow cytometry, HL60.

Assay [3] has as its target T2, human CLEC12A expressed on cells. In words: flow cytometry, hCLEC12A+ Ba/F3.
For assay [4], the target named is T1, recombinant human CLEC12A-His. In words: SPR 37C.
For assay [5] the target is unchanged. In words: flow cytometry of yeast-displayed scFv; x axis PE-A binding of Clec12a-his, y axis FITC-A scFv expression; CLEC12A-His concentration not printed on the sheet.
Assay [6] deals with T3, human NKG2D on effector cells (human, UniProt P26718 1-216).
T3 sequence (looked up): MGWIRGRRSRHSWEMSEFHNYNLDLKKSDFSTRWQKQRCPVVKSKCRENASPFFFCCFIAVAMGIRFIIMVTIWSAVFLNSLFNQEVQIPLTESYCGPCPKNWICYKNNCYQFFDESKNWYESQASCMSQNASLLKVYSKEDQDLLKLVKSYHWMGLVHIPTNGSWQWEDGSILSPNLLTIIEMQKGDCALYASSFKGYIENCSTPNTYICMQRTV
In words: cell-based or functional assay.

Assay [7] has as its target T4, Human CLEC12A expressed on cells (Ba/F3-hCLEC12A, PL21, HL60) (human, UniProt Q5QGZ9 1-265).
T4 sequence: T2 sequence
In words: cell-based or functional assay.

In assay [8] the target is T4, Human CLEC12A expressed on cells …. In words: cell-based or functional assay. This is another data set of the same source.
The target is the same in assay [9]. In words: cell-based or functional assay. The source holds these as a separate data set.
Assay [10] has as its target T1, recombinant human CLEC12A-His. In words: SPR screening, semi-purified.
Procedure: Binding affinities of the 18 semi-purified TriNKETs for hCLEC12A were assessed by SPR in screening.
Assay [11] concerns the target T2, human CLEC12A expressed on cells. In words: flow cytometry (gMFI) on CLEC12A+ PL-21 AML cells.
For assay [12] the target is unchanged. In words: flow cytometry, hCLEC12A+ Ba/F3. This is another data set of the same source.
In assay [13] the target is T1, recombinant human CLEC12A-His. In words: SPR, CLEC12A binding.
Assay [14] has the same target. In words: SPR 37C, average. This is another data set of the same source.
Assay [15] has the same target. In words: SPR 37C. The source holds these as a separate data set.

B1: AB0010 (other)
chain: DIQMTQSPSSVSASVGDRVTITCRASQGISSWLAWYQQKPGKAPKLLIYAASSLQSGVPSRFSGSGSGTDFTLTISSLQPEDFATYYCQQGVSFPRTFGGGTKVEIKGGGGSGGGGSGGGGSGGGGSEVQLVESGGGLVKPGGSLRLSCAASGFTFSSYSMNWVRQAPGKGLEWVSSISSSSSYIYYADSVKGRFTISRDNAKNSLYLQMNSLRAEDTAVYYCARGAPIGAAAGWFDPWGQGTLVTVSSGSDKTHTCPPCPAPELLGGPSVFLFPPKPKDTLMISRTPEVTCVVVDVSHEDPEVKFNWYVDGVEVHNAKTKPREEQYNSTYRVVSVLTVLHQDWLNGKEYKCKVSNKALPAPIEKTISKAKGQPREPRVYTLPPCRDELTKNQVSLTCLVKGFYPSDIAVEWESNGQPENNYKTTPPVLVSDGSFTLYSKLTVDKSRWQQGNVFSCSVMHEALHNHYTQKSLSLSPG
heavy: QLQLQESGPGLVKPSETLSLTCTVSGFSLTNYGLHWIRQPPGKGLEWIGVIWSGGKTDYNPSLKSRVTISKDTSKNQFSLKLSSVQAADTAVYYCAKYDYDDSLDYWGQGTLVTVSSASTKGPSVFPLAPSSKSTSGGTAALGCLVKDYFPEPVTVSWNSGALTSGVHTFPAVLQSSGLYSLSSVVTVPSSSLGTQTYICNVNHKPSNTKVDKKVEPKSCDKTHTCPPCPAPELLGGPSVFLFPPKPKDTLMISRTPEVTCVVVDVSHEDPEVKFNWYVDGVEVHNAKTKPREEQYNSTYRVVSVLTVLHQDWLNGKEYKCKVSNKALPAPIEKTISKAKGQPREPQVCTLPPSRDELTENQVSLTCLVKGFYPSDIAVEWESNGQPENNYKTTPPVLDSDGSFFLYSWLTVDKSRWQQGNVFSCSVMHEALHNHYTQKSLSLSPG
light: DIQMTQSPSSLSASVGDRVTITCHASQNINFWLSWYQQKPGKAPKLLIYEASNLHTGVPSRFSGSGSGTRFTLTISSLQPEDIATYYCQQSHSYPLTFGGGTKLEIKRTVAAPSVFIFPPSDEQLKSGTASVVCLLNNFYPREAKVQWKVDNALQSGNSQESVTEQDSKDSTYSLSSTLTLSKADYEKHKVYACEVTHQGLSSPVTKSFNRGEC
notes: NKG2D scFv-Fc, CLEC12A Fab-Fc
Take B1: in [1], the Kd is 0.74 nM, the koff was found to be 0.000525 s⁻¹ and the on-rate (kon) is 710000 M⁻¹ s⁻¹. Further, a half-maximal effect in assay [2] (EC50) was put at 4.2 nM. In assay [3], this molecule had a 50% effective concentration (EC50) of 6.13 nM. Besides, in assay [4], the Kd is 0.71 nM and 0.77 nM; the koff is 0.000508 s⁻¹ and 0.000541 s⁻¹; the kon is 715000 M⁻¹ s⁻¹ and 704000 M⁻¹ s⁻¹.

B2: scFv-1602 displayed on yeast (scFv)
scFv: QLQLQESGPGLVKPSETLSLTCTVSGFSLTNYGLHWIRQPPGKCLEWIGVIWSGGKTDYNPSLKSRVTISKDTSKNQFSLKLSSVQAADTAVYYCAKYDYDDSLDYWGQGTLVTVSSGGGGSGGGGSGGGGSGGGGSDIQMTQSPSSLSASVGDRVTITCHASQNINFWLSWYQQKPGKAPKLLIYEASNLHTGVPSRFSGSGSGTRFTLTISSLQPEDIATYYCQQSHSYPLTFGCGTKLEIK
Take B2: in [5], the binding result was “binds”.

B3: AB0237-Dead-2D (other)
chain: QLQLQESGPGLVKPSETLSLTCTVSGFSLTNYGLHWIRQPPGKCLEWIGVIWSGGKTDYNPSLKSRVTISKDTSKNQFSLKLSSVQAADTAVYYCAKYDYDDSLDYWGQGTLVTVSSGGGGSGGGGSGGGGSGGGGSDIQMTQSPSSLSASVGDRVTITCHASQNINFWLSWYQQKPGKAPKLLIYEASNLHTGVPSRFSGSGSGTRFTLTISSLQPEDIATYYCQQSHSYPLTFGCGTKLEIKGSDKTHTCPPCPAPELLGGPSVFLFPPKPKDTLMISRTPEVTCVVVDVSHEDPEVKFNWYVDGVEVHNAKTKPREEQYNSTYRVVSVLTVLHQDWLNGKEYKCKVSNKALPAPIEKTISKAKGQPREPRVYTLPPCRDELTKNQVSLTCLVKGFYPSDIAVEWESNGQPENNYKTTPPVLVSDGSFTLYSKLTVDKSRWQQGNVFSCSVMHEALHNHYTQKSLSLSPG
heavy: EVQLVESGGGLVKPGGSLRLSCAASGFTFSSYSMNWVRQAPGKGLEWVSSISSSSSYIYYADSVKGRFTISRDNAKNSLYLQMNSLRAEDTAVYYCARGAPIGAAAGWFDPWGQGTLVTVSSASTKGPSVFPLAPSSKSTSGGTAALGCLVKDYFPEPVTVSWNSGALTSGVHTFPAVLQSSGLYSLSSVVTVPSSSLGTQTYICNVNHKPSNTKVDKKVEPKSCDKTHTCPPCPAPELLGGPSVFLFPPKPKDTLMISRTPEVTCVVVDVSHEDPEVKFNWYVDGVEVHNAKTKPREEQYNSTYRVVSVLTVLHQDWLNGKEYKCKVSNKALPAPIEKTISKAKGQPREPQVCTLPPSRDELTENQVSLTCLVKGFYPSDIAVEWESNGQPENNYKTTPPVLDSDGSFFLYSWLTVDKSRWQQGNVFSCSVMHEALHNHYTQKSLSLSPG
light: DIQMTQSPSTLSASVGDRVTITCRASNSISSWLAWYQQKPGKAPKLLIYEASSTKSGVPSRFSGSGSGTEFTLTISSLQPDDFATYYCQQYDDLPTFGGGTKVEIKRTVAAPSVFIFPPSDEQLKSGTASVVCLLNNFYPREAKVQWKVDNALQSGNSQESVTEQDSKDSTYSLSSTLTLSKADYEKHKVYACEVTHQGLSSPVTKSFNRGEC
B3: the “EC50 nM, KHYG-1-CD16aV-mediated lysis of HL-60” value in assay [6] stood at 2.5 nM.

B4: AB0192 TriNKET (bispecific antibody, human IgG1, kappa)
chain: EVQLVESGGGVVQPGGSLRLSCAASGFTFNAFGMHWVRQAPGKCLEWVAFISSGSTSIYYANTVKGRFTISRDNSKNTLYLQMNSLRAEDTAVYYCARDGYPTGGAMDYWGQGTSVTVSSGGGGSGGGGSGGGGSGGGGSDIQMTQSPSSLSASVGDRVTITCKASQDIYNYLSWFQQKPGKAPKPLIYRANILVSGVPSRFSGSGSGQDYTFTISSLQPEDIATYYCLQFDAFPFTFGCGTKLEIKGSDKTHTCPPCPAPELLGGPSVFLFPPKPKDTLMISRTPEVTCVVVDVSHEDPEVKFNWYVDGVEVHNAKTKPREEQYNSTYRVVSVLTVLHQDWLNGKEYKCKVSNKALPAPIEKTISKAKGQPREPRVYTLPPCRDELTKNQVSLTCLVKGFYPSDIAVEWESNGQPENNYKTTPPVLVSDGSFTLYSKLTVDKSRWQQGNVFSCSVMHEALHNHYTQKSLSLSPG
heavy: B3 heavy
light: DIQMTQSPSSVSASVGDRVTITCRASQGISSWLAWYQQKPGKAPKLLIYAASSLQSGVPSRFSGSGSGTDFTLTISSLQPEDFATYYCQQGVSFPRTFGGGTKVEIKRTVAAPSVFIFPPSDEQLKSGTASVVCLLNNFYPREAKVQWKVDNALQSGNSQESVTEQDSKDSTYSLSSTLTLSKADYEKHKVYACEVTHQGLSSPVTKSFNRGEC
On to B4, for which, in assay [7], the “% Max, ADCP activity of M0 macrophages against PL21 cells” value worked out at 15% and the “EC50, ADCP activity of M0 macrophages against PL21 cells” value was determined as 0.03 nM. In addition, the “EC50, rested NK cells lysis of HL60 cells (mean of four donors)” value in assay [8] worked out at 0.3 nM. The “EC50, rested NK cell lysis of PL21 cells (mean of six donors)” value in [9] amounted to 0.61 nM.

B5: F3'-1295 TriNKET (other)
chain: B3 chain with A180I
heavy: B3 heavy
light: B4 light
Turning to B5, the Kd in assay [10] was 2.94 nM; in [13] it was 1.2 nM; in assay [14] it was 1.43 nM; in [15] it was 1.43 nM and 1.42 nM and 1.44 nM. Moreover, the off-rate (koff) is 0.00153 s⁻¹ in assay [10]; 0.000594 s⁻¹ in assay [14]; 0.000587 s⁻¹ and 0.000589 s⁻¹ and 0.000605 s⁻¹ and 0.000596 s⁻¹ in assay [15]. The kon is 520000 M⁻¹ s⁻¹ in [10]; 415000 M⁻¹ s⁻¹ in [14]; 411000 M⁻¹ s⁻¹ and 415000 M⁻¹ s⁻¹ and 419000 M⁻¹ s⁻¹ and 416000 M⁻¹ s⁻¹ in assay [15]. Further, the values for the 50% effective concentration (EC50) in assay [11] and in [12] were 11.7 nM and 26.1 nM, respectively. Besides, the “Max MFI” value in assay [12] is 48000 MFI.
